# Literature values, collected in PMC7602216.
# Target: UBA5 UIS (Homo sapiens) (UniProt Q9GZZ9)
# Test: ITC
substance,measurement,value
UFM1 (from UniProt P61960),Kd,8 µM
